From US7396682B2, “Method for cell adhesion and wound healing” (Regen Biotech, Inc., priority 2000, dated 2008) come the findings set out here.

The subject of one series is HCE cells. The series can be described thus: Divalent cation sensitivity of βig-h3-mediated adhesion. The conditions noted are these: cells incubated 30 min with divalent cations in HBS. Format: cell-based, human. As for the experimental part:
To analyze the divalent cation sensitivity of βig-h3-mediated adhesion, cells were suspended in HEPES-buffered saline (HBS) (150 mM NaCl, 25 mM HEPES, 2 mM EDTA, pH 7.4) at a density of 2×10^5 cells/ml and incubated at 37° C. for 30 min. Then, they were washed twice in HBS and resuspended in the same buffer. Aliquots of cells (50 μl) were then added to the microculture plate wells and incubated for 30 min at 37° C. in a humidified atmosphere of 5% CO2 with 50 μl aliquots of HBS containing divalent cations (MnCl2, MgCl2 or CaCl2) at a concentration twice as large as the final concentration. Subsequently, they were plated on ligand-coated dishes to perform the adhesion assay.

Series [1] deals with Human corneal epithelial (HCE) cells. Description: HCE cell adhesion and spreading assay on protein-coated plates. The following applies: HCE cells on coated recombinant protein. It counts as cell-based. As for the experimental part:
Human corneal epithelial (HCE) cells used in this assay were cultured in DMEM ([…], Gibco BRL) supplemented with 15% fetal bovine serum, Gentamicin (40 μg/ml), insulin (5 μg/ml), cholera toxin (0.1 μg/ml) and human epidermal growth factor (hEGF) at 37° C. in 5% CO2.
The cell adhesion assay was performed as follows. First, the recombinant βig-h3 proteins or other extracellular matrix proteins were let to adhere to the bottoms of 96-well microculture plates (Falcon) by incubation at 37° C. for 1 hour and blocked with PBS containing 0.2% BSA. The coated extracellular matrix proteins were human plasma vitronectin (Promega), purified human plasma fibronectin (pFN), chicken collagen types I and II (Chemicon International Inc.), bovine collagen types IV and VI (Chemicon), mouse laminin (Chemicon), and bovine serum albumin (BSA) (Sigma). Cells were trypsinized and suspended in the culture media at a density of 2×10^5 cells/ml. 0.1 ml of the cell suspension was added to each well of the plates coated with the recombinant proteins.
Following incubation at 37° C. for 1 hour, unattached cells were removed by rinsing with PBS. Attached cells were incubated for 1 hour at 37° C. in 50 mM citrate buffer, pH 5.0, containing 3.75 mM p-nitrophenol-N-acetyl 1-β-D-glycosaminide as a hexosaminidase substrate and 0.25% Triton X-100, followed by the addition of 50 mM glycine buffer, pH 10.4, containing 5 mM EDTA to block the enzyme activity. A measurement was made of absorbance at 405 nm in a Multiskan MCC/340 microplate reader.
To determine cell area as an index for cell adhesion activity, 4×10^4 cells were applied to substrates in 48-well culture plates. The attached cells were fixed weith 8% glutaraldehyde (Sigma) and then stained with 0.25% Crystal Violet (Sigma) in 20% methanol. Measurement of cell areas was performed by Image-Pro plus software (Media Cybernetics). Experiments were repeated in triplicate with 200 or 300 measurements per site for each experiment. Data is reported as the mean area at specific time points±standard error of mean.

For series [2], the system named is dermal whole layer wounds on the backs of rats. Description: Wound healing with ointment bases on dermal whole layer wounds (2 cm) of rats. It counts as in vivo, rat. Details: key to Formation grade of collagenous fibers at wound: 0: negative; 1+: insignificant; 2+: scatteringly formed; 3+: very dense; key to Re-ephithelialization of Wound (grade): 0: zero was set for the formation of no epithelial layers; 1+ for initiation of epithelialization; 2+ for incomplete epithelial layer structure; 3+ for complete epithelial layer structure. The following applies: for wound area: ointment 100 μg/ml, 1 g per day, mean. On the procedure: To compare wound healing activity between the recombinant βig-h3 protein His-β-b, which contains all of the four fas-1 domains, like native βig-h3 protein, and the recombinant βig-h3 protein βigh3-D-IV, which contains the 4th domain alone, ointment bases comprising the recombinant proteins were tested as follows.
Four dermal whole layer wounds, each 2 cm in diameter, were made on the backs of rats and divided into test groups 1-A, 1-B, 1-C and 1-D according to the ointment applied thereto.
1-A: coated at a dose of 1 gm per day with an ointment base combined with no materials.
1-B: coated at a dose of 1 gm per day with an ointment in which fibronectin was combined at a concentration of 100 μg/ml with a base.
1-C: coated at a dose of 1 g per day with an ointment in which Hisβ-b protein was combined at a concentration of 100 μg/ml with a base.
1-D: coated at a dose of 1 g per day with an ointment in which βigh3-D-IV protein was combined at a concentration of 100 μg/ml with a base.
The backs of etherized rats were shaved, followed by sterilizing the shaved region with betadin solution. In test group 1, the back of each rat was cut by use of a No. 15 surgical blade to form four circular wounds with a diameter of 2 cm penetrating the whole dermal layers. Ointments for test groups 1-A, 1-B, 1-C and 1-D were applied at an amount of about 1 g to the wounds which were then covered with a synthetic dressing (Tegaderm® 3M) and lightly bandaged. Application of ointments was performed once every day.
With a base of an aqueous material (SamA base), each of the ointments contained, per 1 g, spermaceti 38 mg, stearyl alcohol 116 mg, polyethylglycol 38 mg, conc. glycerin 192 mg, ethanol 23 mg, […], ethyl paraoxybenzoate 0.87 mg, butyl paraoxybenzoate 0.12 mg, and purified water.
First, morphologies of wounds were observed. The same scale was positioned near each wound and pictures were taken at the same distance from each wound. Pictures were scanned in a computer and used to measure areas of the wounds with the aid of NIH image analysis system (Bio-Optics). To take the pictures, the muscle was completely relaxed by etherizing the rats. Measurements were performed once every other day until the 22nd day. For comparing test groups, the measured values were analyzed according to ANOVA test and Scheffer's test.
Histological analysis was conducted under an optical microscope. Biopsies of wound sites were taken at days 3, 7, 10, 14 and 20, and fixed in 10% formalin and solidified with paraffin. 6 μm slices of the samples were dyed with hematoxylin-eosin (H&E) and Masson's trichrome before observation under a microscope. Wound healing effects according to time of each test material were evaluated through re-epithelialization and formation of collagenous fibers. In the case of re-epithelialization, epithelial formation was semi-quantified in such a way that zero was set for the formation of no epithelial layers, 1+ for initiation of epithelialization, 2+ for incomplete epithelial layer structure, and 3+ for complete epithelial layer structure. Regarding comparison among test groups and differences according to time within each group, measured values were statistically analyzed using ANOVA test and Scheffe's test. As for collagenous fiber formation, it was graded as 1+ for insignificant formation of collagenous fibers as observed with trichrome dye, 2+ for scatteringly spaced collagenous fibers, and 3+ for dense collagenous fibers.

Series [3] is described as follows: Expression form and non-denaturing gel electrophoresis of recombinant proteins. It counts as physicochemical. The conditions noted are these: electrophoresis using non-denaturing gel. On the procedure: The recombinant proteins containing at least one 4th domain, such as βig3-D-IV, 2X, 3X and 4X were prepared as follows. A DNA fragment encoding to amino acid 498-637 corresponding the 4th domain was obtained by PCR and the PCR products were blunt-ended by Klenow enzyme. This blunt-ended cDNA fragment was inserted to the EcoRV site of the pβig-h3 D-IV, which contained the 4th domain of βig-h3, and the resulting expression vector was named pβI-h3 D-IV 2X. The insert of the pβig-h3 D-IV 2X was excised by digestion with EcoRV and XhoI and blunt-ended by treatment with Klenow, followed by inserting the blunt-ended fragment into EcoRV sites of pβig-h3 D-IV and pβig-h3 D-IV 2X. The resulting expression vectors were named pβig-h3 D-IV 3X and pβig-h3 D-IV 4X. Expression of all recombinant proteins was induced for 3 hours in the presence of 1 mM IPTG and isolated by use of Ni-NTA resin (Qiagen).

“Also recorded” adds a separate entry of the source.

As to `[Ca+2].[Cl-].[Cl-]` [Ca^2+, CaCl2], the “promotion of cell adhesion to βig-h3 by divalent cations” value in the series on HCE cells is “only marginally”.
The same measure, in the same setting: the same measure for `[Cl][Mn][Cl]` [Mn^2+, MnCl2]: “strongly promoted”.

B1: βig-h3 D-IV: recombinant polypeptide, 4th fas-1 domain of βig-h3, amino acids 498-637 (SEQ ID NO:26) (protein)
chain: LTPPMGTVMDVLKGDNRFSMLVAAIQSAGLTETLNREGVYTVFAPTNEAFRALPPRERSRLLGDAKELANILKYHIGDEILVSGGIGALVRLKSLQGDKLEVSLKNNVVSVNKEPVAEPDIMATNGVVHVITNVLQPPAN
modifications: left off: small tags and cut ends
Take B1: the “HCE cell adhesion activity” value in series [1] is “equally active compared to the wild type βig-h3; also recorded: high cell attachment activity”. In addition, the wound area is 3.15 in series [2] (Day 0); 2.62 cm² in series [2] (Day 2); 2.37 in series [2] (Day 4); 1.98 in series [2] (Day 6); 1.51 cm² in series [2] (Day 8); 0.98 cm² in series [2] (Day 10). Also, the wound area in series [2] (Day 12) is given as 0.44; in series [2] (Day 14), 0.22; in series [2] (Day 16) it was 0.20; in series [2] (Day 18), 0.18; in series [2] (Day 20), 0.13; in series [2] (Day 22) it was 0.06. In addition, the “Formation grade of collagenous fibers at wound” value in series [2] (Day 3) is 1+; in series [2] (Day 7, listed as 1-D), “+1”; in series [2] (Day 7, listed as βigD-IV), 1+; in series [2] (Day 10), 2+; in series [2] (Day 14) it was 3+; in series [2] (Day 20) it was 3+. In addition, the “Re-ephithelialization of Wound (grade)” value in series [2] (Day 3) is listed as 0; in series [2] (Day 7), 0; in series [2] (Day 10), 1+; in series [2] (Day 14), 2+; in series [2] (Day 20) it was 3+. Besides, the completion of re-epithelialization in series [2] (optical microscope) amounted to 20 days. Moreover, the polymer formation result in series [3] is “did not form polymers”.
